Experimental findings from patent US20220185874A1 (ROCHE DIAGNOSTICS OPERATIONS, published 2022) are described below.

Test [1] concerns the target T1, human cardiac troponin T (human, UniProt P45379 2-298).
T1 construct: Analyte in SPR was 'Recombinant human TnT (Roche, 37 kDa)'; also called cTnT; TnT
Briefly: SPR (Biacore 8K), 37 C, Fab captured from E. coli lysate by anti-mouse F(ab')2, recombinant human TnT as analyte. The protocol: Detailed kinetic investigations were performed at 37° C. on a GE Healthcare 8k instrument. A Biacore CM-5 series S sensor was mounted into the instrument and was preconditioned according to the manufacturer's instructions. The system buffer was HBS-ET (10 mM HEPES (pH 7.4), 150 mM NaCl, 1 mM EDTA, 0.05% (w/v) Tween® 20). The sample buffer was the system buffer supplemented with 1 mg/ml CMD (Carboxymethyldextran, Fluka). In one embodiment an anti-murine Fab fragment capture system was established on the CM5 biosensor. The rabbit polyclonal pAb anti M-IgG, F(ab′)₂ fragment (Cat. No. 315-005-047, Jackson Immuno Research) was immobilized according to the manufacturer's instructions using NHS/EDC chemistry. At 5 μl/min, 30 μg/ml RAMF(ab′)₂ in 10 mM sodium acetate buffer (pH 5.0) were immobilized at 10.000 RU on each flow cell. The sensor was subsequently saturated with 1 M ethanolamine pH 8.5. […] Recombinant human TnT (Roche, 37 kDa) was diluted in sample buffer at 30 nM and a concentration series was produced with 0 nM, 30 nM, 10 nM, 3.3 nM, 1.1 nM, 0.37 nM TnT concentration. The analyte concentration series were injected at 80 μl/min for 3 min association phase and the dissociation phase was monitored for 5 min. At the end of the analyte association phase a report point, “binding late” (BL) in response units (RU) was monitored. After each cycle of kinetic rates determination, the capture system was regenerated by a 15 seconds injection of 10-fold concentrated HBS-EP buffer followed by two 1 min injections of 100 mM HCl at 20 μl/min.
Background: SPR reads the build-up and loss of mass on a sensor chip optically.

The target in test [2] is T1, human cardiac troponin T. Briefly: Elecsys ECL sandwich immunoassay, calibrator Cal1 (recTnT), reference: biotinylated wild type Fab of MAB11-7. The protocol: (§1) The antibody Fab fragment mAb<TnT>rM-11-7(A102W)-Fab(IgG1)-Qtag was produced as a biotinylated Fab fragment, i.e., mAb<TnT>rM-11-7(A102W)-Fab(IgG1)-Qtag-Bi according to Example 7 and was tested in a sandwich immuno assay (see FIG. 6). The Fab fragment mAb<TnT>rM-11-7(A102W)-Fab(IgG1)-Qtag-Bi was compared to the biotinylated wild type Fab-fragment of MAB11-7 (i.e. comprising a CDR3 of SEQ ID NO: 16) as comprised in the commercially available Roche Elecsys® assay, catalogue number 05092744190 (Roche Diagnostics GmbH, Mannheim, Germany). These biotinylated reagents were used as reagent 1 (RI) in the corresponding assay protocol. The ruthenylated detection antibody was the one comprised in the Roche Elecsys® assay, catalogue number 05092744190 (Roche Diagnostics GmbH, Mannheim, Germany). The ruthenylated detection antibody corresponds to the Elecsys® R2 reagent.
(§2) The assay follows assay protocol 2 of the cobas e analyzers, where sample, R1 and R2 are mixed in a first step for 9 min incubation, then the streptavidin coated magnetic beads are added in a second step for another 9 min incubation. […]
(§3) Elecsys® streptavidin-coated magnetic beads were always used in combination with one of the RI and R2 reagent bottles. Samples measured included sample diluent (Diluent Universal=buffer blank,) and the TnT Elecsys® assay commercial calibrators (Call ([…] recTnT) and Cal2 ([…] recTnT)).

For test [3], the target named is T1, human cardiac troponin T. As to the kind of experiment: Elecsys ECL sandwich immunoassay, calibrator Cal2 (recTnT), reference: biotinylated wild type Fab of MAB11-7. The protocol: as §1, §2, §3
Test [4] concerns the target T1, human cardiac troponin T. Briefly: Elecsys ECL sandwich immunoassay, biotinylated Fab as capture reagent R1, ruthenylated commercial detection antibody; reference: biotinylated wild type Fab of MAB11-7. The protocol: as §1
Measurements were performed on a Cobas E170 Module using the Troponin T hs assay protocol with a blank control (Diluent Universal, Id. 11732277122, Diluent Multi Assay, Id. 03609987170, Roche Diagnostics GmbH, Mannheim, Germany), Call and Cal2 from Troponin T hs CalSet (Id. 05092752190, Roche Diagnostics GmbH, Mannheim, Germany) using the Troponin T hs assay specifications. […]

B1: mAb<TnT>rM-11-7 Fab A102D (Fab, V domains shown)
VH: QIQLVQSGPELKKPGETVKISCKASGYTFTDFSMHWVKQAPGKGLKWMGWINTETGEPTYADDFKGRFAFSLETSATTAYLQINNLKNEDTATYFCVRSHDMDYWGQGTSVTVSS
VL: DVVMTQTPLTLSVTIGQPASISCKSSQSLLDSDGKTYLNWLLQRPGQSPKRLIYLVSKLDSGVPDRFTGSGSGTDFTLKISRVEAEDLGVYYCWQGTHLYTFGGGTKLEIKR
notes: Murine CH1 and CL, E. coli periplasmic lysate
What is called Kd is the concentration at which binding is half-saturated. The term koff denotes the first-order rate constant of dissociation. One may read the kon as the second-order rate constant of association. As to B1, in test [1], the dissociation constant (Kd) came to 15 nM, the off-rate constant (koff) worked out at 0.029 s⁻¹, the kon is 1.9e+06 M⁻¹ s⁻¹ and the “t½ [min] (complex half-life)” value worked out at 0.4 min.

B2: mAb<TnT>rM-11-7 Fab A102F (Fab, V domains shown)
VH: QIQLVQSGPELKKPGETVKISCKASGYTFTDFSMHWVKQAPGKGLKWMGWINTETGEPTYADDFKGRFAFSLETSATTAYLQINNLKNEDTATYFCVRSHFMDYWGQGTSVTVSS
VL: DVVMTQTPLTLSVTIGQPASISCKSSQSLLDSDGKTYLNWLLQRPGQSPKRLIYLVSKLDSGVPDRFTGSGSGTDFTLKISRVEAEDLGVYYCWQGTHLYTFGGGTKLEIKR
notes: as for B1
On to B2, for which, in test [1], the Kd was found to be 1 nM, the koff came to 0.0012 s⁻¹, the on-rate constant (kon) was found to be 900000 M⁻¹ s⁻¹ and the “t½ [min] (complex half-life)” value worked out at 10 min.

B3: mAb<TnT>rM-11-7 Fab A102E (Fab, V domains shown)
VH: QIQLVQSGPELKKPGETVKISCKASGYTFTDFSMHWVKQAPGKGLKWMGWINTETGEPTYADDFKGRFAFSLETSATTAYLQINNLKNEDTATYFCVRSHEMDYWGQGTSVTVSS
VL: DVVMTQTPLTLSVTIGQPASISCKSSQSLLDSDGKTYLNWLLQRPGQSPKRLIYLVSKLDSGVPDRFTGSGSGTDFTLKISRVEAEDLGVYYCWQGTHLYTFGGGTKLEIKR
notes: as for B1
Turning to B3, in test [1], the dissociation constant Kd turned out to be 9 nM, the koff amounted to 0.0098 s⁻¹, the kon is 1.1e+06 M⁻¹ s⁻¹ and the “t½ [min] (complex half-life)” value worked out at 1 min.

B4: mAb<TnT>rM-11-7 Fab A102Y (Fab, V domains shown)
VH: QIQLVQSGPELKKPGETVKISCKASGYTFTDFSMHWVKQAPGKGLKWMGWINTETGEPTYADDFKGRFAFSLETSATTAYLQINNLKNEDTATYFCVRSHYMDYWGQGTSVTVSS
VL: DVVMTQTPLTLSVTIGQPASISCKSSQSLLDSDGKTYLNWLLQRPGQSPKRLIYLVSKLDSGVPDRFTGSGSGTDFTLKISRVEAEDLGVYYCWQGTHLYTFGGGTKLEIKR
notes: as for B1
Regarding B4, in test [1], the Kd was 5 nM, the koff came to 0.0033 s⁻¹, the kon came out at 710000 M⁻¹ s⁻¹ and the “t½ [min] (complex half-life)” value is 3 min.

B5: mAb<TnT>rM-11-7 Fab A102H (Fab, V domains shown)
VH: QIQLVQSGPELKKPGETVKISCKASGYTFTDFSMHWVKQAPGKGLKWMGWINTETGEPTYADDFKGRFAFSLETSATTAYLQINNLKNEDTATYFCVRSHHMDYWGQGTSVTVSS
VL: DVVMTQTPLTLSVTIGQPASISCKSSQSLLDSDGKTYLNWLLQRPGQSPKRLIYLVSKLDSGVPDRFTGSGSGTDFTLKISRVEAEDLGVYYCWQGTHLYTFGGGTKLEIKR
notes: as for B1
For B5, in test [1], the Kd is 8 nM, the koff was 0.0069 s⁻¹, the kon is 830000 M⁻¹ s⁻¹ and the “t½ [min] (complex half-life)” value was determined as 2 min.

B6: mAb<TnT>rM-11-7 Fab A102W (Fab, V domains shown)
VH: QIQLVQSGPELKKPGETVKISCKASGYTFTDFSMHWVKQAPGKGLKWMGWINTETGEPTYADDFKGRFAFSLETSATTAYLQINNLKNEDTATYFCVRSHWMDYWGQGTSVTVSS
VL: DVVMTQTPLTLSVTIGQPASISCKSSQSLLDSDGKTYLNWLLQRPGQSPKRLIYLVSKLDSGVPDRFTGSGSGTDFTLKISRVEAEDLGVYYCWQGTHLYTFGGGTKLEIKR
notes: as for B1
With B6, in test [1], the dissociation constant Kd was under 0.01 nM, the koff is under 1e-05 s⁻¹, the kon worked out at 1.1e+06 M⁻¹ s⁻¹ and the “t½ [min] (complex half-life)” value was over 1160 min.

B7: mAb<TnT>rM-11-7(A102W)-Fab(IgG1)-Qtag-Bi (Fab, V domains shown)
VH: QIQLVQSGPELKKPGETVKISCKASGYTFTDFSMHWVKQAPGKGLKWMGWINTETGEPTYADDFKGRFAFSLETSATTAYLQINNLKNEDTATYFCVRSHWMDYWGQGTSVTVSS
VL: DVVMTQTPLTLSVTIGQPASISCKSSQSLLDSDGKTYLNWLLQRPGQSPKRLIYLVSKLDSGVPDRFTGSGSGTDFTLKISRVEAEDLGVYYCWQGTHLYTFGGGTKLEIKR
notes: Murine Fab (IgG1) with a Qtag, produced in HEK FreeStyle 293-F cells, site-directed conjugated to biotin with Kutzneria albida transglutaminase; also called maturated biotinylated mAb<TnT>rM-11-7(A102W)-Fab
With B7, in test [2], the “fold increase of Cal-1 signal against parental” value was 1.7 fold. Also, in test [3], the “fold increase of Cal-2 signal against parental” value stood at 1.8 fold. In addition, the “fold increase in sensitivity (signal to noise) against parental” value in test [4] was about 2 fold.

B8: mAb<TnT>rM-11-7 Fab A102R (Fab, V domains shown)
VH: QIQLVQSGPELKKPGETVKISCKASGYTFTDFSMHWVKQAPGKGLKWMGWINTETGEPTYADDFKGRFAFSLETSATTAYLQINNLKNEDTATYFCVRSHRMDYWGQGTSVTVSS
VL: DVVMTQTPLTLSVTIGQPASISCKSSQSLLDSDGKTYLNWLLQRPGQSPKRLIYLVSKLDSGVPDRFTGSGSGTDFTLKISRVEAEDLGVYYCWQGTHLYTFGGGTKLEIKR
notes: as for B1
Consider B8, for which, in test [1], the dissociation constant (Kd) was determined as 2500 nM, the koff came out at 0.042 s⁻¹, the kon came out at 16000 M⁻¹ s⁻¹ and the “t½ [min] (complex half-life)” value was 0.3 min.

B9: mAb<TnT>rM-11-7 Fab A102L (Fab, V domains shown)
VH: QIQLVQSGPELKKPGETVKISCKASGYTFTDFSMHWVKQAPGKGLKWMGWINTETGEPTYADDFKGRFAFSLETSATTAYLQINNLKNEDTATYFCVRSHLMDYWGQGTSVTVSS
VL: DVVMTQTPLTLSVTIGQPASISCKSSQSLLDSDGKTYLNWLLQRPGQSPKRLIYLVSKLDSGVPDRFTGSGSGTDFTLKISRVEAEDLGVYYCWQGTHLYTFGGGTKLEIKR
notes: as for B1
With B9, in test [1], the Kd was determined as 13 nM, the koff was 0.009 s⁻¹, the association rate constant (kon) amounted to 710000 M⁻¹ s⁻¹ and the “t½ [min] (complex half-life)” value was determined as 1 min.

B10: mAb<TnT>rM-11-7 Fab A102I (Fab, V domains shown)
VH: QIQLVQSGPELKKPGETVKISCKASGYTFTDFSMHWVKQAPGKGLKWMGWINTETGEPTYADDFKGRFAFSLETSATTAYLQINNLKNEDTATYFCVRSHIMDYWGQGTSVTVSS
VL: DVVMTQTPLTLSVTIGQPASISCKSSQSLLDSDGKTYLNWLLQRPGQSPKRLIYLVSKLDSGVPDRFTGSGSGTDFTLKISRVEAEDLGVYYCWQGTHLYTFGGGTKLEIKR
notes: as for B1
As to B10, in test [1], the dissociation constant (Kd) is 18 nM, the koff was 0.032 s⁻¹, the association rate constant (kon) came out at 1.7e+06 M⁻¹ s⁻¹ and the “t½ [min] (complex half-life)” value came to 0.4 min.

B11: mAb<TnT>rM-11-7 Fab A102N (Fab, V domains shown)
VH: QIQLVQSGPELKKPGETVKISCKASGYTFTDFSMHWVKQAPGKGLKWMGWINTETGEPTYADDFKGRFAFSLETSATTAYLQINNLKNEDTATYFCVRSHNMDYWGQGTSVTVSS
VL: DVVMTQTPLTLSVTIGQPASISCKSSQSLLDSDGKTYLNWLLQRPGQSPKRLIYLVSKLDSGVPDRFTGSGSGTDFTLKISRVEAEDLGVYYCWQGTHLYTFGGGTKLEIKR
notes: as for B1
As to B11, in test [1], the Kd turned out to be 17 nM, the dissociation rate constant (koff) came to 0.056 s⁻¹, the kon came out at 3.3e+06 M⁻¹ s⁻¹ and the “t½ [min] (complex half-life)” value was 0.2 min.
